Experimental data taken from patent publication US20250339519A1 (ASHER BIOTHERAPEUTICS, published 2025).

Target: human IL-21 receptor (human, UniProt Q9HBE5 20-232, limits assumed)
Experiment: KD at 37 C; method and format not stated

Chain of human IL-21 receptor (Q9HBE5 20-232 limits assumed): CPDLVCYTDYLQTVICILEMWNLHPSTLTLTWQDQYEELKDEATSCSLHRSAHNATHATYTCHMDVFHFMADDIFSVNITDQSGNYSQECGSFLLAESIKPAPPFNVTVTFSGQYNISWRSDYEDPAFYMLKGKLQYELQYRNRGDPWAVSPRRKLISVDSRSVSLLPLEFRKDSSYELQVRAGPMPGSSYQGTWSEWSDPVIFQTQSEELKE

B1: IL-21 v31.23 (ligand)
chain: QGQDRHMIRMRQLIDIVDQLKNYVNDLVPEFLPAPEDVETNCEWSAFSCFQKAQLKSANTGNNERIINVSIKKLKQKPPGGEGGGGGGGEGGCPSCDSYEKKPPKEFLERFKSLLQKMIHQHLSSRTHGSEDS
notes: also called hIL21 v31.23
Kd: 6.06 µM

B2: IL-21 v31.51 (ligand)
chain: QGQDRHMIGMRQLIDIVDQLKNYVNDLVPEFLPAPEDVETNCEWSAFSCFQKAQLKSANTGNNERIINVSIKKLKRKPPGGEGGGGGGGEGGCPSCDSYEKKPPKEFLERFKSLLQKMIHQHLSSRTHGSEDS
notes: also called hIL21 v31.51
Kd: 7.73 µM
